Target: human C3 FRET peptide

Substance	Activity (nM EDANS/min/µL sample), expi293 supernatant on 40 µM human C3 FRET peptide (nM EDANS/min/µL sample)
WT uPA with C122S-Fc (No PP) (Fc fusion)	0
WT uPA with C122S - HSA (No PP) (enzyme)	0.1
